Target: the molecule itself

B1: HSF1 K80Q (natural protein, human, UniProt Q00613 1-529, looked up)
chain: MDLPVGPGAAGPSNVPAFLTKLWTLVSDPDTDALICWSPSGNSFHVFDQGQFAKEVLPKYFKHNNMASFVRQLNMYGFRQVVHIEQGGLVKPERDDTEFQHPCFLRGQEQLLENIKRKVTSVSTLKSEDIKIRQDSVTKLLTDVQLMKGKQECMDSKLLAMKHENEALWREVASLRQKHAQQQKVVNKLIQFLISLVQSNRILGVKRKIPLMLNDSGSAHSMPKYSRQFSLEHVHGSGPYSAPSPAYSSSSLYAPDAVASSGPIISDITELAPASPMASPGGSIDERPLSSSPLVRVKEEPPSPPQSPRVEEASPGRPSSVDTLLSPTALIDSILRESEPAPASVTALTDARGHTDTEGRPPSPPPTSTPEKCLSVACLDKNELSDHLDAMDSNLDNLQTMLSSHGFSVDTSALLDLFSPSVTVPDMSLPDLDSSLASIQELLSPQEPPRPPEAENSSPDSGKQLVHYTAQPLFLLDPGSVDTGSNDLPVLFELGEGSYFSEGDGFAEDPTISLLTGSEPPKAKDPTVS
  stoichiometry N: 3
